From paper PMC2756588

Assays:
Test in all cases: SPOT array
[1] = target: T1, Abp1, P15891; details: median of control spots 935
T1 sequence (P15891 535-592, looked up): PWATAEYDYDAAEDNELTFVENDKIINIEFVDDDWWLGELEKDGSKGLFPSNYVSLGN

[2] = target: T2, Bbc1, P47068; details: median of control spots 796
T2 sequence (P47068 1-78, looked up): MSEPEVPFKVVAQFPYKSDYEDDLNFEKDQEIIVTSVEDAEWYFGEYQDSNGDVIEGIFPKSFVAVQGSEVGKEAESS

[3] = target: Bem1-1, P29366; details: median of control spots 4282
[4] = target: Bem1-2, P29366; details: median of control spots 4347
[5] = target: T3, Boi1, P38041; details: median of control spots 1162
T3 sequence (P38041 1-86, looked up): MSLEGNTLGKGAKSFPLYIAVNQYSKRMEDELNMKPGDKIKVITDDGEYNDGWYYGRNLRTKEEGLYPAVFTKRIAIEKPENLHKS

[6] = target: T4, Boi2, P39969; details: median of control spots 1161
T4 sequence (P39969 32-116, looked up): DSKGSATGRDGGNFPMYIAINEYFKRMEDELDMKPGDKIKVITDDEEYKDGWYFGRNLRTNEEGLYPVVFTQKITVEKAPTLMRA

[7] = target: T5, Bud14, P27637; details: median of control spots 956
T5 sequence (P27637 247-328, looked up): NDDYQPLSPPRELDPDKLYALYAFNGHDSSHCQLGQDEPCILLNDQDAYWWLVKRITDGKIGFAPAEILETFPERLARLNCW

[8] = target: T6, Bzz1-1, P38822; details: median of control spots 4446
T6 sequence (P38822 478-572, looked up): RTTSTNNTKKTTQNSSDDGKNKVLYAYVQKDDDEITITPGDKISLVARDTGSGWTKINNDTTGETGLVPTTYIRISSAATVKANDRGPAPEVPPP

[9] = target: T7, Bzz1-2, P38822; details: median of control spots 4538
T7 sequence (P38822 568-633, looked up): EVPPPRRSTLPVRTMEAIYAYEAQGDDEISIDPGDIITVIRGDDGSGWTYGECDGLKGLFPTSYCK

[10] = target: T8, Cdc25, P04821; details: median of control spots 969
T8 sequence (P04821 50-136, looked up): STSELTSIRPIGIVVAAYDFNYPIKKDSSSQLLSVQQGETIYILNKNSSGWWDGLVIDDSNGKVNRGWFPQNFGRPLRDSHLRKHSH

[11] = target: T9, Cyk3, Q07533; details: median of control spots 1451
T9 sequence (Q07533 1-83, looked up): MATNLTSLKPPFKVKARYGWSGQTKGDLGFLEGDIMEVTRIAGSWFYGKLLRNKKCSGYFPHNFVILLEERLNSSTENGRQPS

[12] = target: T10, Fus1, P11710; details: median of control spots 1200
T10 sequence (P11710 432-512, looked up): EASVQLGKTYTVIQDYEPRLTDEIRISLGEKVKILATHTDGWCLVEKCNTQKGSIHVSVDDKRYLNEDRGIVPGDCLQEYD

[13] = target: GST; details: median of control spots 978
[14] = target: T11, Hof1, Q05080; details: median of control spots 4086
T11 sequence (Q05080 590-669, looked up): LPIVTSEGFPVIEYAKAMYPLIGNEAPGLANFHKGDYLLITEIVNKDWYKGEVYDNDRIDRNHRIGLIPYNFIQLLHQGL

[15] = target: T12, Hse1, P38753; details: median of control spots 1727
T12 sequence (P38753 208-285, looked up): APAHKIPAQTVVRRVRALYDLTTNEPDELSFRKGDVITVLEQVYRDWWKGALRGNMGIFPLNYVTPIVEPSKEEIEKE

[16] = target: T13, Lsb1, P53281; details: median of control spots 388
T13 sequence (P53281 45-122, looked up): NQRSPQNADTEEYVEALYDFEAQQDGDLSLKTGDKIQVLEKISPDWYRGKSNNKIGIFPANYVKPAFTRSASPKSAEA

[17] = target: T14, Lsb3, P43603; details: median of control spots 406
T14 sequence (P43603 385-451, looked up): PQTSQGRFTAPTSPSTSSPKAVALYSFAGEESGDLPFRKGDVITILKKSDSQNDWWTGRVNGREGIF

[18] = target: T15, Lsb4, P32793; details: median of control spots 397
T15 sequence (P32793 402-468, looked up): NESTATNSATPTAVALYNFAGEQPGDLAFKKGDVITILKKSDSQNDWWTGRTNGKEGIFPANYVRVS

[19] = target: Myo3, P36006; details: median of control spots 468
[20] = target: T16, Myo5, Q04439; details: median of control spots 471
T16 sequence (Q04439 1072-1160, looked up): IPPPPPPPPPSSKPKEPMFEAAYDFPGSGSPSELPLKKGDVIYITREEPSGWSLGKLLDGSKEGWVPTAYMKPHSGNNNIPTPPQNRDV

[21] = target: T17, Nbp2, Q12163; details: median of control spots 357
T17 sequence (Q12163 103-180, looked up): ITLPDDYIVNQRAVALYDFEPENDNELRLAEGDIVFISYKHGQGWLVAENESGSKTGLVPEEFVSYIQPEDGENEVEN

[22] = target: T18, Pex13, P80667; details: median of control spots 1341
T18 sequence (P80667 295-386, looked up): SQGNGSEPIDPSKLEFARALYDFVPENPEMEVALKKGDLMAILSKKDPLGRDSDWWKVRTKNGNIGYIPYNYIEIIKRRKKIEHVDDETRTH

[23] = target: T19, Pin3, Q06449; details: median of control spots 2171
T19 sequence (Q06449 53-122, looked up): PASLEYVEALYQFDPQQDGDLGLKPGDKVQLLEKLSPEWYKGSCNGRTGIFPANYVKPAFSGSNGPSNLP

[24] = target: Rvs167, P39743; details: median of control spots 2707
[25] = target: Sho1, P40073; details: median of control spots 1148
[26] = target: T20, Sla1-2, P32790; details: median of control spots 712
T20 sequence (P32790 60-140, looked up): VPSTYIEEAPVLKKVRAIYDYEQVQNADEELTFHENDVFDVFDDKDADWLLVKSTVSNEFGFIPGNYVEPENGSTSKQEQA

[27] = target: T21, Sla1-3, P32790; details: median of control spots 5475
T21 sequence (P32790 344-424, looked up): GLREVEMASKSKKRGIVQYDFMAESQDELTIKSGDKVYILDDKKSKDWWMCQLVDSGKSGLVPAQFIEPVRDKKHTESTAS

Bem1-1, P29366, sequence (P29366 55-141): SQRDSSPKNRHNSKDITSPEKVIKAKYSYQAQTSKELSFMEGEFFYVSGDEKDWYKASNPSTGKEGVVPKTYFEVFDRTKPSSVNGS
Bem1-2, P29366, sequence (P29366 139-227): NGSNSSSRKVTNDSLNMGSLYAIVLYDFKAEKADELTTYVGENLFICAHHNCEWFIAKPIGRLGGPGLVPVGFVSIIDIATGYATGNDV
Sho1, P40073, sequence (P40073 287-367): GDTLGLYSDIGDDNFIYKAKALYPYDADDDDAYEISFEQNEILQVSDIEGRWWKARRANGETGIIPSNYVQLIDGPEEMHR
Rvs167, P39743, sequence (P39743 419-482): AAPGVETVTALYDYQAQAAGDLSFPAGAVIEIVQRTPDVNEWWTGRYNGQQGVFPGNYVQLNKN

Row | Binder | SPOT intensity [1] | SPOT intensity [2] | SPOT intensity [3] | SPOT intensity [4] | SPOT intensity [5] | SPOT intensity [6] | SPOT intensity [7] | SPOT intensity [8] | SPOT intensity [9] | SPOT intensity [10] | SPOT intensity [11] | SPOT intensity [12] | SPOT intensity [13] | SPOT intensity [14] | SPOT intensity [15] | SPOT intensity [16] | SPOT intensity [17] | SPOT intensity [18] | SPOT intensity [19] | SPOT intensity [20] | other results
1 | LKVTPGRRAPTISKI | 83 | 17 | 1 | 3 | 0 | 2 | 8 | 0 | 1 | 13 | 1 | 0 | 0 | 0 | 0 | 0 | 0 | 7 | 80 | 6 | SPOT intensity [21]: 85; SPOT intensity [22]: 3; SPOT intensity [23]: 14; SPOT intensity [24]: 0; SPOT intensity [25]: 72; SPOT intensity [26]: 0; SPOT intensity [27]: 6
2 | KMSRSPPRPPSLKII | 326 | 98 | 0 | 567 | 0 | 0 | 5 | 2 | 350 | 9 | 0 | 0 | 1 | 0 | 14 | 140 | 54 | 88 | 81 | 64 | SPOT intensity [21]: 513; SPOT intensity [22]: 124; SPOT intensity [23]: 69; SPOT intensity [24]: 67; SPOT intensity [25]: 55; SPOT intensity [26]: 8; SPOT intensity [27]: 88
3 | RKNRAPPQRPRFNRD | 298 | 535 | 0 | 104 | 12 | 7 | 18 | 11 | 91 | 40 | 12 | 26 | 4 | 8 | 23 | 670 | 68 | 75 | 61 | 3 | SPOT intensity [21]: 490; SPOT intensity [22]: 10; SPOT intensity [23]: 9; SPOT intensity [24]: 2; SPOT intensity [25]: 262; SPOT intensity [26]: 3; SPOT intensity [27]: 353
